Results reported in patent US20240343789A1 (published 2024).
Substitutions are numbered along the chain they refer to. Like-named read-outs stand apart in the source and are kept apart here. Values belong to the binder of their own block, whether it stands above or below them.

Key:
Assay in all cases: ECL ELISA titration
[1] = target: T1, IGFR-L1 protein (Endosome/lysosome-associated apoptosis and autophagy regulator 1, ELAPOR1) (UniProt Q6UXG2 42-1013)
T1 chain: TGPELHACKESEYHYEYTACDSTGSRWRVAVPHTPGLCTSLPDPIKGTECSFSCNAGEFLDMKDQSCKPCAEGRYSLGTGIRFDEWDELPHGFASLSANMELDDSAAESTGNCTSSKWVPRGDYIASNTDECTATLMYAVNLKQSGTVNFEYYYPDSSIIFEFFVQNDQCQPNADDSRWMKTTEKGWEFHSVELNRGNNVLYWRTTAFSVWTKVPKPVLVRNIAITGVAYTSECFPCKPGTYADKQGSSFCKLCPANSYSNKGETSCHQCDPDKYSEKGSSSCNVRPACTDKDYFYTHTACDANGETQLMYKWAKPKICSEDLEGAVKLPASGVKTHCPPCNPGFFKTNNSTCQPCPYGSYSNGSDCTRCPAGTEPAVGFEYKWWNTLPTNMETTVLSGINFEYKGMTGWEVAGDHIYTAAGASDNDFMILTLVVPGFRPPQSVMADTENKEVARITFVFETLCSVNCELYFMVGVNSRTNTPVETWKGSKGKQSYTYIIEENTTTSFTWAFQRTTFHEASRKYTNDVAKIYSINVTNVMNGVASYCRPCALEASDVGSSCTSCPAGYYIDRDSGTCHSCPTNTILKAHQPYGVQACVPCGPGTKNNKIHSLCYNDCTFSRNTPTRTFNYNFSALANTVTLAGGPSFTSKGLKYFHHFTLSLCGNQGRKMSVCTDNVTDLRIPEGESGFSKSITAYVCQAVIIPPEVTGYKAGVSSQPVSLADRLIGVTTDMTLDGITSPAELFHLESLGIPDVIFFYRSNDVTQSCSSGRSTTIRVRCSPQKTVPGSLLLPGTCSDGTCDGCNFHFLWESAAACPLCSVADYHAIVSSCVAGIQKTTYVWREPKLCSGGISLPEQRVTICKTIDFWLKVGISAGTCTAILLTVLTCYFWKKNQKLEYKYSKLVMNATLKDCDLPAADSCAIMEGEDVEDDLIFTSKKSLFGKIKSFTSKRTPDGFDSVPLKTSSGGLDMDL

[2] = target: T1, IGFR-L1 protein …
[3] = target: T1, IGFR-L1 protein …
[4] = target: T1, IGFR-L1 protein …
[5] = target: T1, IGFR-L1 protein …
[6] = target: T1, IGFR-L1 protein …

B1: AB-1 (antibody, V domains shown)
VH: EIQLQESGPGLVKPSQSLSLTCSVTDYTITSGFGWSWIRKFPGNKLEWMGYISYSGSTNYNPSLKSRLSLTRDTTKNQFFLQLISVTPEDTATYYCARSPLYGSNRYVVDAWGQGASVTVSS
VL: DVQMTQSPSILTASPGESVSINCKASKSISNYLAWYQQKPGKSINLLIYSGSTLQSGTPSRFSGSGSGTDFTLTIRNLDPEDFGRYYCQQHNENPYTFGPGTRLELKR
Kd [1]: 2.8 nM

B4: AB-5 (antibody, V domains shown)
VH: EVQLVESGGGLVQPGRSLKLSCAAPGFTFSASDMAWVRQAPTKGLEWVASISPSGDSTYYRDSILGRFTVSRDNAKSSLYLQMDSLRSEDTATYYCARHLGLGPFDHWGQGVMVTVSS
VL: DIQMTQSPSLLSASVGDRVTLSCKAGRDINNYLAWYQQKLGEAPKLLIYNANFLQTGIPSRFSGSGSGTDYTLTISSLQPEDVATYFCQQFNTWTGTFGGGTKLELKR
Kd [3]: 4.78 nM

B6: AB-3 (antibody, V domains shown)
VH: EVQLLESGGGLVQPGGSLSLSCAASGFTFTDFYMNWIRQPAGKAPEWLAFARNKANGYTTDYNPSVKGRFAISRDNTQNMFYLHMNTLRPEDTATYYCARGRPSDYWGQGVMVTVSS
VL: DIVMTQSPSSLAVSTGETVTMDCKSSQNLFYSGNQRNYLAWYQQKPGQSPTLLIYWASTRRSGVPDRFIGSGSGTDFTLTISSVQAEDLALYYCQQYDDPPYTFGAGTKLELKR
Kd [5]: 2.75 nM

B7: AB-7 (antibody, V domains shown)
VH: QVKLLQSGAALVKPGDSVKMSCKASGYSFTDYSIHWVKQSHGKSLEWIGYINPYSGGTTYNEKFKRKATLTVDKSSSTAYMEFSRLTSEDSAIYYCAREGMGITLYVMDAWGQGASVTVSS
VL: DIVLTQSPALAVSLGQRATVSCKASQTVTISRYHLLHWYQQKPGQQPTLLIYRASNLASGIPARFSGSGSGTDFTLTINPVQADDLASYYCQQSWGSPWTFGGGTKLELKR
Kd [6]: 1.44 nM

B8: AB-2 (antibody, V domains shown)
VH: EVQLVESDGGFVQPGRSLTLSCAASGFTFSDYYMSWVRQAPTKGLEWVATIGYDVSYTNYRDSVKGRFTISRDNAKSILSLQMDSLRSEDTATYYCARHPSYFDYWGQGVMVTVSS
VL: DIVMTQSPSSLAVSAGETVTINCKSSQSLFYSENQKNYLAWLQQKPGQSPKLLITWASTRQSGVPDRFIGSGSGTDFTLTISSVQAEDLAIYHCQQYYDTPRTFGGGTQLELKR
Kd [1]: 2.22 nM

B10: AB-4 (antibody, V domains shown)
VH: EVQLVESGGGFVRPGKSLKLSCSASGFTFNTYGMHWIRQAPGKGLDWVSYISSSSATAYADAVKGRFTISRDNAKNTLYLQLNSLRSEDTAIYHCAREATYYGYPRYYFDYWGQGVMVTVSS
VL: DIQMTQSPSSMSVSLGDRVTFTCRASQDIGNYLSWYQQKPEKSPRLMIYTATDLEDGVPSRFSGSRSGSDYSLTINSLESEDRGIYFCLQHKQYPYTFGSGTKLELKR
Kd [5]: 2.76 nM

B11: AB-8 (antibody, V domains shown)
VH: QVQLQQSGAELAKPGSSVKISCKASGYTFTSYFISWIKQTTGQDLEYIGYINTGSGGTNYNEKFKGKATLTVDRSSSTAFMQLSSLTPDDSAVYYCARELRRVRGWFAYWGQGTLVTVSS
VL: DTQMTQSPASLFASLGETVTIQCQASEDISSGLAWYQQKPGKSPHLLIYGANSLQDGVPSRFSGSGSGTQYSLKITNMQADDEGVYFCQQGLKYPFTFGSGTKLEIKR
Kd [6]: 2.74 nM

B12: AB-6 (antibody, V domains shown)
VH: EVQLVESDGGLVQPGRSLKLSCAASGFSFSDYYMAWLRQAPTKGLEWVATISHDGTGTYFRDSVKGRFTISRDNVKSTLYLQLDSLRSEDTATYYCARHKDGGYKDYWGQGVMVTVSS
VL: DIKMTQSPSPLSASLGERVTISCRASDNIDNYLSWYQKKEDGSVRLLIYHTSRLQPGAPSRFSGSGSGKDYSLTISGLESEDIATYYCQQTYTPYTFGAGTKLELRR
Kd [3]: 5.27 nM

More lines, now with the values ahead:

Kd [2]: 2.95 nM
B2: AB-9 (antibody, V domains shown)
VH: EVQLVESGGGLVQPTGSVKLSCAASGFIFTNYGMAWVRQAPKKGLEWVAYISYDGGSTYFRDSVRGRFTISRDNAKSTLYLHMDSLRSEDTATYYCTTPRLDTWGQGVMVTVSS
VL: DIQMTQSPSSLSASLGDRVTITCRPSQDIGNHLSWFQQKPGKSPRLMTYGATILEDGVPSRFSGSRSRSDYSLTISSLESEDTAIYYCLQYDKYPRTFGGGTKVELKR

Kd [2]: 1.01 nM
B3: AB-10 (antibody, V domains shown)
VH: GVQLVESGGGLVQSGRSIKVSCEASGFTFSNFYMAWVRQAPTKGLEWVASISSGGGNTHYRDSVRGRFTISRNNAKSTLYLQMDSLNSEDTATYYCARDPGGGSPYWYLDFWGPGTMVTVSS
VL: DIVLTQSPALAVSLGQRATISCRANQNVDFYDNTYLHWYQQKPGQQPKLLIYLASNLASGIPARFSGGGSGTDFTLTIDPVEADDTATYYCQQSRNLPNTFGAGTKLELKR

Kd [4]: 2.79 nM
B5: AB-12 (antibody, V domains shown)
VH: EVKLLESGGGLVQPGGSMRLSCAASGFTFTDFYMNWIRQPAGKAPEWLGFIRNKANGYTTEYTPSVKGRFTISRDDTQNMLYLQMNTLRAEDTATYYCARHYYDGSYYYWYFDFWGPGTMVTVSS
VL: DVVLTQTPVAQPVTLGDQVSISCRSSQSLVKSNGNTYLEWFLQKPGQSPQLLIYKVSNRFSGVPDRFIGSGSGSDFTLKISRVEPEDLGVYYCFQAAHDPRTFGGGTKLELKR

Kd [4]: 2.81 nM
B9: AB-11 (antibody, V domains shown)
VH: B8 VH with T19K, V55G, S56T, K76R, S80Y, Y105H
VL: B8 VL with F30L, L42F, K45R, T55N, I91T, T108S, Q109K
